# The RNAGym collection of RNA variant scans (doi:10.7554/elife.80360)
# B1: HDV Ribozyme (parent)
# chain: GGCCGGCAUGGUCCCAGCCUCCUCGCUGGCGCCGGCUGGGCAACAUUCCGAGGGGACCGUCCCCUCGGUAAUGGCGAAUGGGACCCA
# Variants of: B1
# Test: self-cleavage, relative activity (ratio to wild type); higher = more cleavage; co-transcriptional
row,Variant,self-cleavage
1,GGCCGGCAUGGUCCCAGCCUCCACGCUGGCGCCGGCUGGGCAACAUUCCGAGUGGACCGUCCCCUCGGUAAUGGCGAAUGGGACCCA,0.923
2,GGCCGGCAUGGUCCCAGCCUCCUCGCGGGCGGCGGCUGGGCAACAUUCCGAGGGGACCGUCCCCUCGGUAAUGGCGAAUGGGACCCA,0
3,GGCCGGCAUGGUCCCAGCCUCCUCGCUGGCGCCCGCUGGGCAACAUUCCGAGGGGACCGUCCCCUCGGUAAUAGCGAAUGGGACCCA,0.106
4,GGCCGGCAUGGUCCCAGCCUCCUCACUGGCGCCGGCUAGGCAACAUUCCGAGGGGACCGUCCCCUCGGUAAUGGCGAAUGGGACCCA,0.0536
5,GGCCGGCAUGGUCACAACCUCCUCGCUGGCGCCGGCUGGGCAACAUUCCGAGGGGACCGUCCCCUCGGUAAUGGCGAAUGGGACCCA,0
6,GGCCGGCAUGGUCCCAGCCUCCUCGCUGGCGCCGCCUGGGCAACAUUCCGAGGGGACCGUCCCCCCGGUAAUGGCGAAUGGGACCCA,0.219
7,GGCCGGCAUGAUCCCAGCCUCCUCGCUGGCGCCGGCUGGGCAACAUUCCGAGGGGACCCUCCCCUCGGUAAUGGCGAAUGGGACCCA,0.381
8,GGCCGGCAUGGUCCCAGCCUCCUCGCUGGCGCCGGCUGGGCCACAUUCCGAGGGGACCAUCCCCUCGGUAAUGGCGAAUGGGACCCA,0.213
9,GGCCGGCAUGGUCCCAGCCCCCUCGCUGGCGCCGGCUGGGCAACAUUCCGAGGGGACCUUCCCCUCGGUAAUGGCGAAUGGGACCCA,0.128
10,GGCCGGCAUGGUCCGAGCCUCCUCGCUGGCGCCGGCUGGGCAACAUUCCGCGGGGACCGUCCCCUCGGUAAUGGCGAAUGGGACCCA,0.623
11,GGCUGGCAUGGUCCCAGCCUCCUCGCUGGCGCCGGCUGGGCAACAUUCCGAGGGGACCGUCCCCUCGGUAAUGACGAAUGGGACCCA,0.197
12,GGCCGGCAUGGUCCCAGCCUCCUCGCCGGCGCCGGCUGGGCAACAUUCCGGGGGGACCGUCCCCUCGGUAAUGGCGAAUGGGACCCA,0.914
13,GGCCGGCAUGGUCCCAGCCGCCUCGCUGGCGCAGGCUGGGCAACAUUCCGAGGGGACCGUCCCCUCGGUAAUGGCGAAUGGGACCCA,0.119
14,AGCCGGCAUGGACCCAGCCUCCUCGCUGGCGCCGGCUGGGCAACAUUCCGAGGGGACCGUCCCCUCGGUAAUGGCGAAUGGGACCCA,0.0415
15,GGCCGGCAUGUUCCCAGCCUCCUCGCUGGCGCCGGCUGGGCAACAUUCCGAGGGGACCGUCCCCUCGGUAAUGGGGAAUGGGACCCA,0.0264
16,CGCCGGCAUGGUCCCAGCCUCCUAGCUGGCGCCGGCUGGGCAACAUUCCGAGGGGACCGUCCCCUCGGUAAUGGCGAAUGGGACCCA,0.142

row,Variant,self-cleavage
1,GGCCGGCAUGGUCCCAGCCUCCUCGCUGGCGCCGGCUGGGCAACAUUCCGAGGGGACCGACCCCUCGGUAAUGGCGAGUGGGACCCA,0.808
2,GGCCGGCAUAGUCCCAGCCUCCUCGCUGGCGCCGGCUGGGCAACAUUCCGAGGGGACCGUCCCCUCGGUAAUGGCGAAUGGGACCCU,0.779
3,GGCCGGCAUGGUCCCAGCCUCCUCGCUGGCGCCGGCUGGGCAACAUUCAGUGGGGACCGUCCCCUCGGUAAUGGCGAAUGGGACCCA,0.539
4,GGCCGGCAGGGUCCCAGCCUCCUCGCUGGCGCCGGCUGGGCAACAUUCCGAGGGGACCGUCCCCUGGGUAAUGGCGAAUGGGACCCA,1.19
5,GGCCGGCAUGGUCCCAGCCUCCUCGCUGGCGCCGGCUGGGCAACAUUCCGAGGGGAGCGUCCCCUCGGUAAUGGCGAAUGGGACCCG,0.86
6,GGCCGGCAGGGUUCCAGCCUCCUCGCUGGCGCCGGCUGGGCAACAUUCCGAGGGGACCGUCCCCUCGGUAAUGGCGAAUGGGACCCA,1.07
7,GGCCGGCAUGGUCCCAGCCUCCUCGCUGGCGCCGUCUGGGCAACAUUCCGAGGGGACCGUCCCCUCGGUAAUGGCGAAGGGGACCCA,0.0426
8,GGCCGGUAUGGUCCCAGCCUCCUCGCUGGCGCCGGCUGGGCAACAUUCCGAGGGGACCGUCCCCUCGGUAAGGGCGAAUGGGACCCA,0.332
9,GGCCGGCAUGGUCCCAGCCUCCUCGCUGGCGCCGGCUGGGCAACAUUCCGAGGGGACCGGCCCCUCGGUAAUGGAGAAUGGGACCCA,0.229
10,GGCCGGCAUGGUCCCAGCCUCCUCGCUGGCGCCGGCUGGGCAACAUUCCGAGGGGACUGUCCCCUCGGUAAUGGCGAAUGUGACCCA,0.289
11,GGCCGGCAUGGUCCCAGCCUCCUCGCUGGCGUCGGCUGGGCAACAUUCCGAGGGGACCGUCCCCUCGGUAAUGGUGAAUGGGACCCA,0.315
12,GGCCGGCAUGGUCCCAGCCUCCUCGCUGGCGCCGGCUGGGCAACAUUCCGAGGGGACCGUCCCCUCGGUAAUCGCGAUUGGGACCCA,0.155
13,GGCCGGCAUCGUCCCAGCCUCCUCGCUGGCGCCGGCUGGGCAACAUUCCGAGGCGACCGUCCCCUCGGUAAUGGCGAAUGGGACCCA,1.09
14,GGCCGGCAUGGUCGCAGCCUCCUCGCUGGCGCCGGCUGGGCAACAUUCCGAGGGGACCGUCCCCUCGGUAUUGGCGAAUGGGACCCA,0.529
15,GGCCGGCAUGGUCCCAGCCUCCUCGCUGGCGCCGGCUGGGAAACAUUUCGAGGGGACCGUCCCCUCGGUAAUGGCGAAUGGGACCCA,1.02
16,GGCCGGCAUGGUCCCAGCCUCCUCGCUGGCGCCGGCUGGGCAACAUUCCGAGGGGACCGUCGCCUCGGUAAUGGCGAAUAGGACCCA,0.185
